This note sets out measurements from publication PMC10502752.

For this series, the target named is T1, TaB3-2A1-GST (Triticum aestivum, UniProt A0A3B6AVE6 1-220).
T1 sequence: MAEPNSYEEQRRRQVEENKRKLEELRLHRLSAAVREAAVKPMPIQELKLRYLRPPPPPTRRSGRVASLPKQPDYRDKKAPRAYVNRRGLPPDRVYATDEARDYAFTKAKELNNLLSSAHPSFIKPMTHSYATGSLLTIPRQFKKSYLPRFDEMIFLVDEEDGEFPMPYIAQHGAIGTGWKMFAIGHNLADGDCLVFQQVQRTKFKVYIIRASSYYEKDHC
Briefly: EMSA. (In general: A gel shift assay detects complexes by their altered migration in electrophoresis.)

B1: CCRM1-1 probe (dsDNA)
DNA 1: CTTTTGTGTTGGCAAACTGCGCTTTTCCAACCGATTTTGTTCTTCTCGCGCTTTCTTCTTAGGCTAAACAAACCTCACCGTGCACGCAGCCATGGTCCTGAACCTTCA
DNA 2: TGAAGGTTCAGGACCATGGCTGCGTGCACGGTGAGGTTTGTTTAGCCTAAGAAGAAAGCGCGAGAAGAACAAAATCGGTTGGAAAAGCGCAGTTTGCCAACACAAAAG
Take B1: the binding result was “binds”.
